Source: article PMC4644235 (Cell, 2015)

T1: Sac3(222-572) (S. cerevisiae, UniProt P46674 222-572)
T1 sequence: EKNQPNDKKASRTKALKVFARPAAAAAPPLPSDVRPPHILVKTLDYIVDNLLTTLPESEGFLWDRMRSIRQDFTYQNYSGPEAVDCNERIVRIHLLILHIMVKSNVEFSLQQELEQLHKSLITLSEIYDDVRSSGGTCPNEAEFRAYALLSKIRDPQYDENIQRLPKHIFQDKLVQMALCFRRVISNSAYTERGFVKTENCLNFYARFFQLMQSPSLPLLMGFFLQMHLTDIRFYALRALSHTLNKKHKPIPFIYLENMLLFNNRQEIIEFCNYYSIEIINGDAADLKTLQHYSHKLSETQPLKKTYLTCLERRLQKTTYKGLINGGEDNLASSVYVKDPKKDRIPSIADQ

B1: Sem1 (natural protein)
chain: MSTDVAAAQAQSKIDLTKKKNEEINKKSLEEDDEFEDFPIDTWANGETIKSNAVTQTNIWEENWDDVEVDDDFTNELKAELDRYKRENQ
B2: Thp1(170-455) (domain or fragment)
chain: GKQRILLYLVNKLNNIYFRIESPQLCSNIFKNFQPKSMLAHFNEYQLDQQIEYRYLLGRYYLLNSQVHNAFVQFNEAFQSLLNLPLTNQAITRNGTRILNYMIPTGLILGKMVKWGPLRPFLSQETIDNWSVLYKHVRYGNIQGVSLWLRQNERHLCARQLLIVLLEKLPMVTYRNLIKTVIKSWTTEWGQNKLPYSLIERVLQLSIGPTFEDPGAQEITIYNGIHSPKNVENVLVTLINLGLLRANCFPQLQLCVVKKTTMIQEIVPPVNERITKMFPAHSHVLW

Experiments:
Thp1(170-455) = molecular target: B2; test: crystal structure
Sac3(222-572) = molecular target: T1, Sac3(222-572); test: crystal structure

| binding result (Thp1(170-455)) | binding result (Sac3(222-572)) | Binder |
| --- | --- | --- |
| binds |  | B1 |
|  | binds | B2 |
